According to patent US20250340659A1 (PETMEDIX, published 2025):
Numbering of substitutions follows the chain as printed.

T1: canine OX40L, full length membrane form, expressed on HEK293 cells (canine)
T1 construct: also called OX40L expressing HEK; HEK OX40L cells
T1 chain: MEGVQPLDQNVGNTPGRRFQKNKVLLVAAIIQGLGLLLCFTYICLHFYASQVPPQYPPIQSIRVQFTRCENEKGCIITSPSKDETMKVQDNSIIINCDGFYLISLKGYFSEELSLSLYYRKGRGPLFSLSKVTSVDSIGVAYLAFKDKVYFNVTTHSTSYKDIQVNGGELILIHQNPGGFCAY

T2: recombinant canine OX40L ECD-TNCc-HIS protein (canine)
T2 construct: also called Trimeric OX40L probe (HIS tag); trimeric canine OX40L
T2 chain: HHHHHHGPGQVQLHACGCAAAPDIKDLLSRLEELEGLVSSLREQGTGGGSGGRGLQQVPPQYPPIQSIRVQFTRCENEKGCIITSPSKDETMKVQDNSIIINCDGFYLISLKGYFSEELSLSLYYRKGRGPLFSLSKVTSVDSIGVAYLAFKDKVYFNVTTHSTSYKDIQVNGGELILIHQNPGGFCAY

B1: PMX060 (antibody, V domains shown)
VH: EVQLVESGGDLMKPGGSLRLSCVASGFTFSSFPMSWVRQAPGKGLQWVAYIHSGGSSTSYADAVKGRFTISRDNAKNTLYLQMNSLRAEDTAIYYCARTFPTVAADNWFYYWGQGTLVTVSS
VL: SYVLTQLPSKNVTLKQAAHITCGGDNIGSKSVHWYQQKLGQAPVLIIYYDSSRPTGIPERFSGANSGNTATLTISGALAEDEADYYCQVWDSSAKWVFGEGTQLTVL
notes: also called PMX60
B2: PMX061 (antibody, V domains shown)
VH: B1 VH with M12V, H52N, A63V, E89D, I93V, A105T
VL: B1 VL
notes: also called PMX61
B3: PMX059 (antibody, V domains shown)
VH: EVHLVESGGDLVKPEGSLRLSCVVSGFTFSNYVMNWVRQAPGKGLQWVAFISGDGRSTTYTDAVKSRFTISRDNAKNTLYLQMSSLRTEDTAIYFCAKEKYSSGWSFEYWGQGTLVTVSS
VL: SYVLTQLPSKNVTLKQPAHITCGGDNIGSKSVHWYQQKLGQAPVLIIYYDSSRPTGIPERFSGANSGNTATLTISGALAEDEADYYCQVWDSSASVFGGGTHLTVL
notes: also called PMX59
B4: PMX036 (antibody, V domains shown)
VH: EVQLVESGGDLVKPGGSLRLSCVASGFTFSSYHMSWVRQAPGKGLQWVAYITSGGRTTSYADAVKGRFTISRDNAKNTLYLQMNSLRAEDTAVYYCASDLVLVLGGADYWGQGTLVTVSS
VL: SYELTQPPSVNVTLRETAHITCGGDSIGRKYVQWIQQNPGQAPVVIIYKDTNRPTGIPERFSGANSGNTATLTISGALAEDEADYYCQVGDSGTKAVFGGGTHLTVL
notes: also called PMX36
B5: PMX045 (antibody, V domains shown)
VH: B4 VH with S35T, R56I, N84S, V93M, S98R, V103L
VL: B4 VL with T51S
notes: also called PMX45
B6: PMX032 (antibody, V domains shown)
VH: B4 VH with T69I, V103I
VL: B4 VL with T51N, T94S
notes: also called PMX32
B7: PMX064 (antibody, V domains shown)
VH: B4 VH with R56I, V103I
VL: B4 VL with R15S, T51S
notes: also called PMX64
B8: PMX042 (antibody, V domains shown)
VH: B4 VH with R56S, N84D, E89D, V103L
VL: B4 VL with N38H, T51Y
notes: also called PMX42
B9: PMX038 (antibody, V domains shown)
VH: B4 VH with N84K, S98R, D108E
VL: B4 VL with T51S, T94S
notes: also called PMX38
B10: PMX033 (antibody, V domains shown)
VH: B4 VH with N84K, D108E
VL: B4 VL with T51S, T94S
notes: also called PMX33
B11: PMX028 (antibody, V domains shown)
VH: B4 VH with L4M, S31D, R56S, T57S, L104V, A107G, D108V
VL: B4 VL with R29S, T51S, G100E, H103Q
notes: also called PMX28
B12: PMX034 (antibody, V domains shown)
VH: B4 VH with S31N, T52V, R56S, T57S, S59T, N84T, V103L, L104V
VL: B4 VL with R29S, T51S
notes: also called PMX34
B13: PMX063 (antibody, V domains shown)
VH: EVQLVESGGDLVRPGGSLRLSCVASGFTFNNYHMSWVRQAPGKGLQWVAFINSGGSGTTFADVVRGRFTISRDYAKNALYLQMNSLRAEDTAVYYCASGSIWTHFDYWGQGTLVTVSS
VL: SFVLTQLPSVSVTLRQTARITCGGDIIGSKNVYWYQQRLGQAPVLIIYRDNNRPTGIPERFSGASSGNTATLTISGALAEDEADYYCQVWDNSNKAMFGGGTHLTVL
notes: also called PMX63
B14: PMX065 (antibody, V domains shown)
VH: EVQLVESGGDLVKPGGSLRLSCVASGFTFNNYEMYWVRQAPGKGLEWVARIYESGSTTFSAEAVTGRFTISRDNAKNMVYLQMNSLRAEDTAVYYCASASSSSWRFDYWGQGTLVTVSS
VL: SYVLTQLPSVSVTLGQTARITCGGDSIGRKNVCWFQQRLGQAPELIIYDDRSRPSGIPERFSGANSGNTATLTISGALAEDEADYYCQVWDSSTGVFGGGTHLTVL
notes: also called PMX65
B15: PMX029 (antibody, V domains shown)
VH: EVQLVESGGDLVKPGGSLRLSCVASGFTFSSYHMNWVRQAPGKGLQWVAYINTGGSRTSYADAVKGRFTISRDNAKNTLYLQMNSLRAEDTAVYYCANNYWDNFDSWGQGTLVTVSS
VL: SYELTQPPSVNVTLRETAHITCGGDSIGSKYVQWIQQNPGQAPVVIIYKDTNRPTGIPERFSGANSGNTATLTISGALAEDEADYYCQVGDSGTKASVFGGGTHLTVL
notes: also called PMX29

Target: T1, canine OX40L, full length membrane …
Assay: flow cytometry
In short: (§1)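 CHO supernatants at 1, 5 or 10 μg/ml in PBS/3% FBS incubated 30′ on ice with cells surface-expressing canine OX40L. Bound antibody detected with fluorescent anti-canine Fc secondary (1:1000, 30 min, dark) and measured by flow cytometry, with parental WT HEK signal subtracted where stated.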

| Binder | GEO mean OX40L expressing HEK |
| --- | --- |
| B1 | 3.1e+06 |
| B2 | 3.29e+06 |
| B3 | 3.14e+06 |
| B4 | 1.31e+06 |
| B5 | 1.47e+06 |
| B6 | 1.45e+06 |
| B7 | 3.45e+06 |
| B8 | 1.51e+06 |
| B9 | 1.56e+06 |
| B10 | 1.46e+06 |
| B11 | 1.05e+06 |
| B12 | 1.39e+06 |
| B13 | 3.18e+06 |
| B14 | 3.55e+06 |
| B15 | 1.09e+06 |

Target: T2, recombinant canine OX40L ECD-TNCc-HIS …
Assay: SPR Koff (kd1)
Method: (§2) Affinity (Kd) of OX40L antibodies is measured by SPR, using a recombinant canine OX40L ECD-TNCc-HIS protein (Seq ID 811) as the capturing agent (FIG. 5B).
(§3) Functional affinity is determined using a Biakore 8K (Cytiva). in brief, purified OX40L ECD-TNCc-HIS protein is covalently bound at low density to the surface of a CM5 sensor chip (Cytiva) by amine coupling, using the manufacturer's recommended protocol. Candidate antibodies are subsequently passed across the chip surface at a range of concentrations and affinity determined using the dedicated software (Biacore Insight Evaluation Software). Curves were fitted using a bivalent analyte binding model.

| Binder | koff [s⁻¹] |
| --- | --- |
| B1 | 0.00933 |
| B2 | 0.00746 |
| B3 | 0.00737 |
| B4 | 0.00166 |
| B5 | 0.00484 |
| B6 | 0.00586 |
| B7 | 0.0352 |
| B8 | 0.0292 |
| B9 | 0.0105 |
| B10 | 0.0103 |
| B11 | 0.00935 |
| B12 | 0.135 |
| B13 | 9.05e-05 |
| B14 | 0.0125 |
| B15 | 0.0294 |

Target: T2, recombinant canine OX40L ECD-TNCc-HIS …
Assay: SPR Koff (kd2)
Method: as §2, §3

| Binder | koff [s⁻¹] |
| --- | --- |
| B1 | 0.000925 |
| B2 | 0.000729 |
| B3 | 0.00737 |
| B4 | 0.0522 |
| B5 | 0.000554 |
| B6 | 1.71e-05 |
| B7 | 0.000921 |
| B8 | 0.00056 |
| B9 | 0.000796 |
| B10 | 0.00101 |
| B11 | 0.000627 |
| B12 | 0.000252 |
| B13 | 5.21 |
| B14 | 0.412 |
| B15 | 0.000779 |

Target: T1, canine OX40L, full length membrane …
Assay: cell-based or functional assay

| Binder | % Signal Inhibition Average [%] | % Signal Inhibition Rep1 [%] | % Signal Inhibition Rep2 [%] | % Signal Inhibition Rep3 [%] |
| --- | --- | --- | --- | --- |
| B1 | 66.1 | 58.9 | 68.4 | 71.1 |
| B2 | 56.1 | 51 | 61.6 | 55.7 |
| B3 | 57.8 | 51.1 | 64.3 | 58 |
| B4 | 77.4 | 87.6 | 79.1 | 65.5 |
| B5 | 75.9 | 79.9 | 81.7 | 66.2 |
| B6 | 70 | 76.8 | 57.4 | 75.7 |
| B7 | 91.1 | 88.9 | 94.8 | 89.7 |
| B8 | 78.8 | 77.8 | 87.5 | 71 |
| B9 | 68.5 | 79.8 | 75 | 50.8 |
| B10 | 60.3 | 55.8 | 69.8 | 55.4 |
| B11 | 66.4 | 61.7 | 75.4 | 62.1 |
| B12 | 64.2 | 76.4 | 64.7 | 51.6 |
| B13 | 74.4 | 68.3 | 83 | 72 |
| B14 | 72.6 | 62.7 | 85.3 | 69.9 |
| B15 | 69.4 | 75.8 | 76.2 | 56 |

Target: T2, recombinant canine OX40L ECD-TNCc-HIS …
Assay: SPR KD1, bivalent analyte model
Method: as §2, §3

| Binder | Kd [nM] |
| --- | --- |
| B1 | 70.9 |
| B2 | 89.6 |
| B3 | 10 |
| B4 | 21.6 |
| B5 | 10.4 |
| B6 | 7.2 |
| B7 | 145 |
| B8 | 274 |
| B9 | 100 |
| B10 | 36.4 |
| B11 | 17 |
| B12 | 7230 |
| B13 | 0.271 |
| B14 | 107 |
| B15 | 51.6 |

Target: T1, canine OX40L, full length membrane …
Assay: flow cytometry, OX40L HEK minus WT HEK
In short: as §1

| Binder | GEO mean difference |
| --- | --- |
| B1 | 3.07e+06 |
| B2 | 3.26e+06 |
| B3 | 3.11e+06 |
| B4 | 1.28e+06 |
| B5 | 1.44e+06 |
| B6 | 1.42e+06 |
| B7 | 3.42e+06 |
| B8 | 1.48e+06 |
| B9 | 1.53e+06 |
| B10 | 1.43e+06 |
| B11 | 1.02e+06 |
| B12 | 1.36e+06 |
| B13 | 3.15e+06 |
| B14 | 3.52e+06 |
| B15 | 1.06e+06 |
